From FireProtDB (doi:10.1038/s41589-020-0556-3)
Several values for one entry are separate records, joined by “and”; a condition that tells them apart may be missing. Identical values can stand only once.

B1: Barstar, P11540 (parent)
chain: MKKAVINGEQIRSISDLHQTLKKELALPEYYGENLDALWDCLTGWVEYPLVLEWRQFEQSKQLTENGAESVLQVFREAKAEGCDITIILS

Variants of: B1
Settings: Bacillus amyloliquefaciens; pH 7.5; 25 °C; Urea; fluorescence; HEPES; KCL / MgOAc 150000 / 15000; transition: 2; structure 1BTA; whole UniProt chain shown

K61A E81A
denaturant m value: 1.16 kcal/mol/M and 0.7 kcal/mol/M
denaturant midpoint (higher = more stable): 6.02 M and 3.72 M
unfolding free energy: 29.2 kJ/mol

K79A
denaturant m value: 0.89 kcal/mol/M and 0.48 kcal/mol/M
denaturant midpoint (higher = more stable): 4.65 M and 4.24 M
unfolding free energy: 17.4 kJ/mol

K3A
denaturant m value: 1.06 kcal/mol/M and 0.59 kcal/mol/M
denaturant midpoint (higher = more stable): 4.97 M and 2.52 M
unfolding free energy: 22 kJ/mol

K61A
denaturant m value: 0.96 kcal/mol/M and 0.68 kcal/mol/M
denaturant midpoint (higher = more stable): 4.41 M and 2.51 M
unfolding free energy: 17.8 kJ/mol
